Laboratory results as given in doi:10.1101/2022.04.11.487922.
Where a chain is given by its changes, count along the chain named. Where two headings read alike, the source gives them in different places.

Columns and labels:
[1] = target: T1, p50 (in p50/RelA);RelA RHD (in p50/RelARHD) (Mus musculus;Mus musculus, UniProt P25799;Q04207 39-350;19-321, |); assay: fluorescence anisotropy
[2] = target: T2, p50 (in p50/RelA);RelA FL (in p50/RelAFL) (Mus musculus;Mus musculus, UniProt P25799;Q04207 39-350;19-549, |); assay: fluorescence anisotropy
T2 sequence (P25799 39-350, chain 1 of 2): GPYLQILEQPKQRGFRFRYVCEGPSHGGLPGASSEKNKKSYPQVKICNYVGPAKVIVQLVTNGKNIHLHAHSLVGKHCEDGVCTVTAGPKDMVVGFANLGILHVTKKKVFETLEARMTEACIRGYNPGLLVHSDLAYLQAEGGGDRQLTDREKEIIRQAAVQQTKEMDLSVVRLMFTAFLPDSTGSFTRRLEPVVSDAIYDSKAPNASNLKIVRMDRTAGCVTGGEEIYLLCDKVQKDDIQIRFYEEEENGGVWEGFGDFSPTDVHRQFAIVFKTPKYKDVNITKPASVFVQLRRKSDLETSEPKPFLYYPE
T2 sequence (Q04207 19-549, chain 2 of 2): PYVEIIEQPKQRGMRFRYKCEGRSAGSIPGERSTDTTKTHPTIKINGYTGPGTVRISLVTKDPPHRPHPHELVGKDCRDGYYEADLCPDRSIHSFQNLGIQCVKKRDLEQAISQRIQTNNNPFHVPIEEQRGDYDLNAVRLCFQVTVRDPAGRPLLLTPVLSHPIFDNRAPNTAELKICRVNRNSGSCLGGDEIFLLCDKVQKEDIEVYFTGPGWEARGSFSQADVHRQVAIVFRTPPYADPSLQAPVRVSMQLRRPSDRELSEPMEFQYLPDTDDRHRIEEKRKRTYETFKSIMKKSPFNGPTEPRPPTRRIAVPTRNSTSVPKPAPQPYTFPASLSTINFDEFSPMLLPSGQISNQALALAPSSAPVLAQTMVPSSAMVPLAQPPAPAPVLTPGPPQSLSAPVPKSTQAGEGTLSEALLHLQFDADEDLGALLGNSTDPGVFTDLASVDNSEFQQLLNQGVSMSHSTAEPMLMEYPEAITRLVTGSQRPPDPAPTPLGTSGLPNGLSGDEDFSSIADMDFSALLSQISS

[3] = target: T1, p50 (in p50/RelA);RelA RHD (in …); assay: fluorescence anisotropy; remark: listed apart in the source
[4] = target: T2, p50 (in p50/RelA);RelA FL (in …); assay: fluorescence anisotropy; remark: listed apart in the source
[5] = target: T1, p50 (in p50/RelA);RelA RHD (in …); assay: EMSA
[6] = target: T2, p50 (in p50/RelA);RelA FL (in …); assay: EMSA
[7] = target: T1, p50 (in p50/RelA);RelA RHD (in …); assay: EMSA; remark: listed apart in the source
[8] = target: T2, p50 (in p50/RelA);RelA FL (in …); assay: EMSA; remark: listed apart in the source
[9] = target: T1, p50 (in p50/RelA);RelA RHD (in …); assay: EMSA; remark: listed apart in the source
[10] = target: T2, p50 (in p50/RelA);RelA FL (in …); assay: EMSA; remark: listed apart in the source
[11] = target: T1, p50 (in p50/RelA);RelA RHD (in …); assay: EMSA; remark: listed apart in the source
[12] = target: T2, p50 (in p50/RelA);RelA FL (in …); assay: EMSA; remark: listed apart in the source
[13] = target: T1, p50 (in p50/RelA);RelA RHD (in …); assay: EMSA; remark: listed apart in the source
[14] = target: T2, p50 (in p50/RelA);RelA FL (in …); assay: EMSA; remark: listed apart in the source
[15] = target: T1, p50 (in p50/RelA);RelA RHD (in …); assay: fluorescence anisotropy; remark: listed apart in the source
[16] = target: T2, p50 (in p50/RelA);RelA FL (in …); assay: fluorescence anisotropy; remark: listed apart in the source
[17] = target: T1, p50 (in p50/RelA);RelA RHD (in …); assay: fluorescence anisotropy; remark: listed apart in the source
[18] = target: T2, p50 (in p50/RelA);RelA FL (in …); assay: fluorescence anisotropy; remark: listed apart in the source

T1 sequence (P25799 39-350, chain 1 of 2): as the sequence (P25799 39-350, chain 1 of 2) above
T1 sequence (Q04207 19-321, chain 2 of 2): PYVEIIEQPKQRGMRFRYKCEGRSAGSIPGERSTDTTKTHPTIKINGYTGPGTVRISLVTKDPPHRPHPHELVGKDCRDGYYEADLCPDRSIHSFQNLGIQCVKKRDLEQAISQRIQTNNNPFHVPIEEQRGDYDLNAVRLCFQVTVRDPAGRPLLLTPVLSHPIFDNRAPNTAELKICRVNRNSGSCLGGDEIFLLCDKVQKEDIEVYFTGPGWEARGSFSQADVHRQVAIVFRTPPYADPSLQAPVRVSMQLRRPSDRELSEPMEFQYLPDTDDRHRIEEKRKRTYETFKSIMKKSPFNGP

B1: Random hairpin (structured_DNA)
DNA: GTAGACGTGCTCCCCCAGCACGTCTAC
modifications: 5' 5AmMC6
Question: With B1 as the binder, how does the Kd [1] read?
Answer: The Kd was 1500 ± 100 nM.

Question: And the Kd [2]?
Answer: Its Kd is 130 ± 40 nM.

B2: HIV LTR tandem dsDNA (anisotropy) (dsDNA)
DNA 1: CAAGGGACTTTCCGCTGGGGACTTTCCAGG
DNA 2: CCTGGAAAGTCCCCAGCGGAAAGTCCCTTG
modifications: 5' 5AmMC6
Question: What does the source list for B2?
Answer: Kd [3]: 1.7 ± 0.4 nM; Kd [4]: 1.3 ± 0.4 nM

B3: HIV LTR tandem kB 33 bp (EMSA) (dsDNA)
DNA 1: AAGGGACTTTCCGCTGGGGACTTTCCAGGGAGG
DNA 2: CCTCCCTGGAAAGTCCCCAGCGGAAAGTCCCTT
Question: Which results are given for B3?
Answer: binding result [5]: binds; binding result [6]: binds

B4: NFKBIA tandem kB 59 bp (EMSA) (dsDNA)
DNA 1: CTGACTGGCTTGGAAATTCCCCGAGCCTGACCCCGCCCCAGAGAAATCCCCAGCCAGCG
DNA 2: CGCTGGCTGGGGATTTCTCTGGGGCGGGGTCAGGCTCGGGGAATTTCCAAGCCAGTCAG
Question: Does B4 bind [7]?
Answer: Result: binds

Question: Does B4 bind [8]?
Answer: Result: binds

B5: HIV LTR, site 1 scrambled (dsDNA)
DNA 1: AAGTCGACTGTCGCTGGGGACTTTCCAGGGAGG
DNA 2: CCTCCCTGGAAAGTCCCCAGCGACAGTCGACTT
Question: Does B5 bind [9]?
Answer: Result: binds

Question: Does B5 bind [10]?
Answer: Result: binds

B6: HIV LTR, site 2 scrambled (dsDNA)
DNA 1: AAGGGACTTTCCGCTGGTCGACTGTCAGGGAGG
DNA 2: CCTCCCTGACAGTCGACCAGCGGAAAGTCCCTT
Question: Does B6 bind [11]?
Answer: Result: binds

Question: Does B6 bind [12]?
Answer: Result: binds

B7: NFKBIA, site 1 scrambled (dsDNA)
DNA 1: B4 DNA 1 with G12A, A14T, A15C, T17C, T18G, C19T, C21A
DNA 2: B4 DNA 2 with G39T, G41A, A42C, A43G, T45G, T46A, C48T
Question: What does the source list for B7?
Answer: binding result [13]: binds; binding result [14]: binds

B8: NFKBIA, site 2 scrambled (dsDNA)
DNA 1: CTGACTGGCTTGGAAATTCCCCGAGCCTGACCCCGCCCCAAGCACTGACACAGCCAGCG
DNA 2: CGCTGGCTGTGTCAGTGCTTGGGGCGGGGTCAGGCTCGGGGAATTTCCAAGCCAGTCAG
Question: Does B8 bind [13]?
Answer: Result: binds

Question: Does B8 bind [14]?
Answer: Result: binds

B9: NFKBIA tandem dsDNA (anisotropy), forward label (dsDNA)
DNA 1: CTTGGAAATTCCCCGAGCCTGACCCCGCCCCAGAGAAATCCCCAG
DNA 2: CTGGGGATTTCTCTGGGGCGGGGTCAGGCTCGGGGAATTTCCAAG
modifications: 5' 5AmMC6
Question: For B9, which Kd [15] is on record?
Answer: Its Kd is 1.7 ± 0.5 nM.

Question: And the Kd [16]?
Answer: Its Kd is 1.5 ± 0.7 nM.

B10: NFKBIA tandem dsDNA (anisotropy), reverse label (dsDNA)
DNA 1: B9 DNA 1
DNA 2: B9 DNA 2
modifications: 5' 5AmMC6
Question: Which Kd [17] does the source give for B10 here?
Answer: Its Kd is 10 ± 2 nM.

Question: And the Kd [18]?
Answer: The Kd was 5.1 ± 0.4 nM.
